# Results reported in patent US20240343811A1 (SHANDONG SIMCERE BIOPHARMACUTICAL, published 2024).
# T1: human CD16b (NA2), full length, on FlpinCHO cells (human, UniProt O75015 17-200)
# T1 construct: also called FlpinCHO-human CD16b (NA2)
# T1 chain: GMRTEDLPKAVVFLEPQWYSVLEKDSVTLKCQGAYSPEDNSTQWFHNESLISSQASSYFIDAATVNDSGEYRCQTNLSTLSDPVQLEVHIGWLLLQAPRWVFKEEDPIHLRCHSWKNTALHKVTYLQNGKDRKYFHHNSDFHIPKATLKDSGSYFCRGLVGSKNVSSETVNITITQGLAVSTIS
# T2: human CD16b (NA1), full length, on FlpinCHO cells (human, UniProt O75015 17-200)
# T2 construct: also called FlpinCHO-human CD16b (NA1)
# T2 chain: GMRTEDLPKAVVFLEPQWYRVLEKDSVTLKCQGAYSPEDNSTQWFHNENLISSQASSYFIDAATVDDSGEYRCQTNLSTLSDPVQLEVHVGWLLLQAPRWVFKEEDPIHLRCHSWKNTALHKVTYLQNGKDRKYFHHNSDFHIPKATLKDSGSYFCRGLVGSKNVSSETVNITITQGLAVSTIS
# Columns and labels:
# [1] = target: T3, CD16 on primary human NK cells (human, UniProt P08637 17-254); assay: FACS on human NK cells
# T3 construct: whole, on cells; also called resting NK cells
# Method: (§1) The required cells were scale-up cultured in a T-75 cell culture flask to the logarithmic growth phase. The medium was aspirated, and the cells were washed twice with a PBS buffer and then digested with trypsin. After the digestion was terminated, the cells were washed twice with the PBS buffer. The cells were counted, and then the cell pellet was resuspended with a [PBS+2% (w/w) BSA] blocking solution to 2×10⁶ cells/ml, and added to a 96-well FACS reaction plate at 50 μl/well. […] 50 μl/well of the antibody to be detected was added at different concentrations, and incubated on ice for 1 hour. […] The mixture was centrifuged and washed 5 times with PBS, and FACS (FACS Canto II, purchased from BD Company) was used for detection and result analysis. Data analysis was performed by software (CellQuest) to obtain the mean fluorescence intensity (MFI) of the cells. Then, software (GraphPad Prism8) was used for analysis, data fitting and EC50 value calculation.
# The binding of an antibody to be detected to freshly prepared human NK cells (Milestone Biotechnologies, catalog number: PB56-N-Custom) was detected according to the method of Example 3.1.
# [2] = target: T4, human CD16a (158F), full length, on FlpinCHO cells (human, UniProt P08637 17-254); assay: FACS on FlpinCHO cells
# Method: as §1
# [3] = target: T5, human CD16a (158V), full length, on cells (human, UniProt P08637 17-254); assay: FACS on FlpinCHO cells
# T5 construct: also used as target for the bought Jurkat-NFAT reporter line stably expressing human CD16a (158V); also called FlpinCHO-human CD16a (158V); FlpinCHO-CD16a (158V)
# Method: as §1
# [4] = target: T4, human CD16a (158F), full length, on …; assay: FACS, biotinylated antibody, +10 mg/mL human immunoglobulin
# Method: as §1, with “The” for “The required cells were scale-up cultured in a T-75 cell culture flask to the logarithmic growth phase. The”
# (§2) An antibody to be detected was labeled in advance according to the instructions of a biotin labeling kit (EZ-Link™ NHS-PEG4 Biotinylation Kit, purchased from Thermofisher Scientific, catalog number: 21455). […] Detection was performed according to the method of Example 3.1, wherein the biotinylated antibody was detected with fluorescein APC-labeled Streptavidin (High Concentration) (purchased from Biolegend, catalog number: 405243).
# [5] = target: T5, human CD16a (158V), full length, on …; assay: as above
# Method: as §1, with “The” for “The required cells were scale-up cultured in a T-75 cell culture flask to the logarithmic growth phase. The”
# as §2
# Human CD16a (158V)-his = target: T6, Human CD16a (158V)-his (human); assay: SPR (Biacore), antibody captured on Protein A
# T6 construct: entry holds ECD, AVI tag, linker and His tag
# Method: (§3) A sample buffer and a running buffer were HBS-EP+ (10 mM HEPES, 150 mM NaCl, 3 mM EDTA and 0.05% surfactant P20) (GE Healthcare; BR-1006-69). The flow-through cell was set to 25° C. The sample block was set to 16° C. Both were pretreated with the running buffer. In each cycle, an antibody to be detected was first captured with a Protein A chip, and then a single concentration of CD16 antigen protein was injected. The binding and dissociation processes of the antibody and the antigen protein were recorded, and finally Glycine pH 1.5 (GE Healthcare; BR-1003-54) was used to complete chip regeneration. Binding was measured by injecting different concentrations of recombinant human CD16-ECD his proteins in a solution for 240 s with a flow rate of 30 μL/min, wherein a total of 5 concentrations were prepared by using 200 nM as a starting concentration (see the detailed results for the actual concentration in the test) and performing a 1:1 dilution. The dissociation phase was monitored for up to 600 s and was triggered by switching from a sample solution to a running buffer. The surface was regenerated by washing with a 10 mM glycine solution (pH 1.5) for 30 s at a flow rate of 30 μL/min. Bulk refractive index difference was corrected by subtracting the response obtained from the goat anti-human Fc surface. Blank injection was also subtracted (=double reference). For calculation of apparent KD and other kinetic parameters, Langmuir 1:1 model was used.
# Human CD16a (158F)-his = target: T7, Human CD16a (158F)-his (human); assay: SPR (Biacore), antibody captured on Protein A
# T7 construct: entry holds ECD, AVI tag, linker and His tag
# Method: as §3
# [6] = target: T5, human CD16a (158V), full length, on …; assay: cell-based or functional assay
# [7] = target: T4, human CD16a (158F), full length, on …; assay: FACS, biotinylated antibody
# Method: as §1, with “The” for “The required cells were scale-up cultured in a T-75 cell culture flask to the logarithmic growth phase. The”
# as §2
# [8] = target: T5, human CD16a (158V), full length, on …; assay: FACS, biotinylated antibody
# Method: as §1, with “The” for “The required cells were scale-up cultured in a T-75 cell culture flask to the logarithmic growth phase. The”
# as §2
# [9] = target: T1, human CD16b (NA2), full length, on …; assay: FACS on FlpinCHO cells
# Method: as §1
# (§4) The binding of an antibody to be detected to FlpinCHO-human CD16b cells was detected according to the method of Example 3.1.
# [10] = target: T2, human CD16b (NA1), full length, on …; assay: FACS on FlpinCHO cells
# Method: as §1, §4
EC50 [2] [pM],Maximum mean fluorescence intensity [2],EC50 [3] [pM],Maximum mean fluorescence intensity [3],EC50 [4] [pM],Maximum mean fluorescence intensity [4],EC50 [5] [pM],Maximum mean fluorescence intensity [5],Kd (Human CD16a (158V)-his) [pM],koff (Human CD16a (158V)-his) [s⁻¹],kon (Human CD16a (158V)-his) [M⁻¹ s⁻¹],Kd (Human CD16a (158F)-his) [pM],koff (Human CD16a (158F)-his) [s⁻¹],kon (Human CD16a (158F)-his) [M⁻¹ s⁻¹],"EC50, activation activity for Jurkat cell [6] [pM]",Maximum fluorescence value [6],EC50 [7] [pM],Maximum mean fluorescence intensity [7],EC50 [8] [pM],Maximum mean fluorescence intensity [8],also measured,Binder
250,5190,320,5970,870,5520,850,7900,22700,0.00249,110000,67200,0.00451,67200,20,174000,240,4160,220,5970,EC50 [1]: 220 pM; Maximum mean fluorescence intensity [1]: 2330; Maximum mean fluorescence intensity [9]: 113; binding result [9]: no binding (tested: 100 nM); EC50 [10]: 350 pM; Maximum mean fluorescence intensity [10]: 52900,VHH07 VHH-Fc antibody (Fc fusion) EVQLVESGGGLVQAGGSLRLSCVASRSTLTTYAVRWYRQAPGKQREWVAFISVDGKTNYPDSVKGRFIVSRDNAKNTVYLQMNSLKPEDTADYICRAGGQYWGQGTQVTVSSEPKSSDKTHTCPPCPAPEFEGGPSVFLFPPKPKDTLMISRTPEVTCVVVAVSHEDPEVKFNWYVDGVEVHNAKTKPREEQYNSTYRVVSVLTVLHQDWLNGKEYKCKVSNKALPAPIEKTISKAKGQPREPQVYTLPPSREEMTKNQVSLTCLVKGFYPSDIAVEWESNGQPENNYKTTPPVLDSDGSFFLYSKLTVDKSRWQQGNVFSCSVMHEALHNHYTQKSLSLSPGK
470,5550,690,6240,1350,6500,1740,9480,16100,0.00178,110000,50200,0.00309,61600,30,159000,390,5140,640,7640,EC50 [1]: 760 pM; Maximum mean fluorescence intensity [1]: 2420; Maximum mean fluorescence intensity [9]: 143; binding result [9]: no binding (tested: 100 nM); EC50 [10]: 300 pM; Maximum mean fluorescence intensity [10]: 48200,VHH09 VHH-Fc antibody (Fc fusion) EVQVVESGGGLVQAGGSLRLSCVASTSTLTTYAVRWYRQAPGKQREWVAFISVDGNTNYPDSVKGRFIVSRDNAKNTVYLQMNSLKPEDTADYICRAGGQYWGQGTQVTVSSEPKSSDKTHTCPPCPAPEFEGGPSVFLFPPKPKDTLMISRTPEVTCVVVAVSHEDPEVKFNWYVDGVEVHNAKTKPREEQYNSTYRVVSVLTVLHQDWLNGKEYKCKVSNKALPAPIEKTISKAKGQPREPQVYTLPPSREEMTKNQVSLTCLVKGFYPSDIAVEWESNGQPENNYKTTPPVLDSDGSFFLYSKLTVDKSRWQQGNVFSCSVMHEALHNHYTQKSLSLSPGK
560,4240,810,4710,1080,6060,1240,8840,22100,0.00266,120000,80500,0.00559,69500,20,178000,850,3940,710,5660,Maximum mean fluorescence intensity [9]: 149; binding result [9]: no binding (tested: 100 nM); EC50 [10]: 180 pM; Maximum mean fluorescence intensity [10]: 38600,VHH08 VHH-Fc antibody (Fc fusion) EVQVVESGGGLVQAGGSLRLSCVASRSTLSTYAVRWYRQAPGNQREWVAFISVDGNTNYPDSVKGRFIVSRDNAKNTVYLQMNSLKPEDTADYICRAGGQYWGQGTQVTVSSEPKSSDKTHTCPPCPAPEFEGGPSVFLFPPKPKDTLMISRTPEVTCVVVAVSHEDPEVKFNWYVDGVEVHNAKTKPREEQYNSTYRVVSVLTVLHQDWLNGKEYKCKVSNKALPAPIEKTISKAKGQPREPQVYTLPPSREEMTKNQVSLTCLVKGFYPSDIAVEWESNGQPENNYKTTPPVLDSDGSFFLYSKLTVDKSRWQQGNVFSCSVMHEALHNHYTQKSLSLSPGK
